B1: TET3 peptide 1705-1720 (methylcytosine dioxygenase TET3), 16-mer library wild type / USP8 rhodanese domain (ubiquitin carboxyl-terminal hydrolase 8, residues 174-317) (parent)
chain 1: GLALWEAKMKQLAERA
chain 2: KCETKEKGAITAKELYTMMTDKNISLIIMDARRMQDYQDSCILHSLSVPEEAISPGVTASWIEAHLPDDSKDTWKKRGNVEYVVLLDWFSSAKDLQIGTTLRSLKDALFKWESKTVLRNEPLVLEGGYENWLLCYPQYTTNAKV

Variants of: B1
Assay: peptide-phage display deep mutational scan (M13, 16-mer library, displayed with a C-terminal GGGSG linker encoded by the 3' flank) selected against the GST-tagged USP8 rhodanese domain, four rounds; NGS counts summed over selection …
Conditions: with USP8 rhodanese domain (ubiquitin carboxyl-terminal hydrolase 8, residues 174-317), 10 µg GST-bait on MaxiSorp, pre-cleared on GST, 2 h at 4 °C, five washes with 0.05% Tween 20 in PBS, not graded, scale: average over two replicas of the peptide's fractional NGS count

Screen value, by site and new letter:
chain 1 K8: N 2.3e-05 | E 4.33e-06 | P 1.73e-05 | Q 4.33e-06
chain 1 L2: Y 1.73e-05 | F 4.18e-05 | P 4.33e-06 | R 4.33e-06 | T 4.33e-06 | V 0.00764 | S 1.15e-05 | M 0.000603 | A 4.33e-06 | I 0.00377 | K 1.3e-05 | H 2.73e-05 | W 0.000401
chain 1 M9: Y 3.9e-05 | T 0.000181 | H 3.75e-05 | S 0.0119 | V 1.3e-05 | P 2.45e-05 | Q 3.16e-05 | I 4.74e-05 | W 0.00223 | R 0.000108 | N 1.73e-05 | A 0.00064 | L 4.33e-06 | F 1.3e-05
chain 1 E14: N 6.5e-05 | T 8.66e-06 | S 7.32e-05 | G 0.000341 | W 4.33e-06 | V 0.000238 | F 0.000199 | I 4.33e-06 | A 4.18e-05 | Q 4.03e-05 | L 0.000367 | Y 2.3e-05 | D 2.73e-05 | M 0.000615
chain 1 E6: G 0.000196 | D 9.38e-05 | S 0.000221 | F 8.66e-06 | A 8.66e-06 | H 3.9e-05 | Y 1.15e-05 | V 1.15e-05
chain 1 K10: P 8.66e-06 | S 0.0345 | D 0.000192 | G 0.00596 | F 8.06e-05 | R 0.00248 | A 0.0149 | Y 0.000154 | T 0.00016 | V 0.00689 | N 0.0933 | M 1.15e-05 | Q 0.000152 | W 0.00214 | E 0.0209 | I 0.00024 | H 0.0117 | L 0.000183
chain 1 L12: K 4.33e-06 | I 4.33e-06 | S 4.33e-06 | F 8.66e-06 | A 1.15e-05 | M 4.33e-06 | R 1.15e-05
chain 1 A7: L 4.33e-06 | E 8.66e-06 | I 3.9e-05 | P 5.46e-05 | R 4.33e-06 | S 2.3e-05 | N 0.000194 | V 5.18e-05 | F 4.33e-06 | G 7.04e-05 | Q 0.00623 | H 0.00234 | M 0.000234 | T 0.000404 | W 0.0002 | Y 2.3e-05
chain 1 Q11: G 0.000837 | H 0.000267 | I 8.66e-06 | A 3.6e-05 | D 0.00724 | F 4.33e-06
chain 1 A13: G 0.0144 | P 5.48e-05 | M 5.89e-05 | I 1.3e-05 | H 0.0027 | E 0.0925 | V 0.0163 | D 2.6e-05 | N 0.000273 | Y 2.45e-05 | T 3.6e-05 | L 0.000154 | Q 0.00219 | K 2.6e-05
chain 1 A16: H 2.3e-05 | T 0.00395 | R 8.66e-06 | S 0.00296 | V 0.00901 | I 0.00523 | D 0.027 | L 6.61e-05 | M 0.000143 | E 0.00115 | N 0.00504 | G 6.5e-05 | P 0.0179 | Q 0.00138 | F 4.33e-06 | Y 1.58e-05
chain 1 A3: T 5.18e-05 | K 1.3e-05 | H 8.66e-06 | L 4.33e-06 | D 0.0209 | E 0.064 | Y 0.000177 | F 4.33e-06 | M 0.00023 | G 3.88e-05 | Q 0.00817 | I 4.33e-06 | V 0.000173 | W 9.64e-05 | P 0.000452 | S 0.000145
chain 1 L4: K 4.33e-06 | M 0.0286 | R 0.000374 | T 0.000596 | P 4.33e-06 | Q 0.00044 | E 9.1e-05 | H 1.3e-05 | S 4.74e-05 | N 0.00113 | V 0.00974 | A 9.18e-05 | G 2.3e-05 | D 4.33e-06 | I 0.211 | F 0.000225
chain 1 G1: N 4.46e-05 | R 4.33e-06 | K 2.01e-05 | E 6.35e-05 | Q 8.66e-06
